The values below come from patent publication CN117003877A (XIANGYA HOSPITAL CENTRAL SOUTH UNIV, dated 2023).

Assay [1] deals with T1, 小鼠Prdx1蛋白 (endogenous mouse Prdx1 in liver, lung, kidney tissue and primary macrophages) (mouse, UniProt P35700 2-199).
T1 construct: Endogenous protein, denatured on Western blot; also called 鼠源性Prdx1蛋白; 小鼠的Prdx1蛋白
T1 sequence (looked up): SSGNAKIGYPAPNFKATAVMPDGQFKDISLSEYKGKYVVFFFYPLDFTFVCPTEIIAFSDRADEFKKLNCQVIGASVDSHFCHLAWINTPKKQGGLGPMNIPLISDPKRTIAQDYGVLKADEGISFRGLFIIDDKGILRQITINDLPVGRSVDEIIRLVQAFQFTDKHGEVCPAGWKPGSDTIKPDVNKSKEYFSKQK
Briefly: Western blot on mouse liver, lung, kidney, primary macrophages. (A western blot detects proteins with antibodies after separation by electrophoresis.)

Assay [2] addresses T2, 人源性Prdx1重组蛋白 (recombinant peroxiredoxin 1 protein bought from Abclone) (human, UniProt Q06830 1-199, limits assumed).
T2 construct: Bought recombinant protein; also called 重组prdx1蛋白; 重组Prdx1
T2 sequence (looked up): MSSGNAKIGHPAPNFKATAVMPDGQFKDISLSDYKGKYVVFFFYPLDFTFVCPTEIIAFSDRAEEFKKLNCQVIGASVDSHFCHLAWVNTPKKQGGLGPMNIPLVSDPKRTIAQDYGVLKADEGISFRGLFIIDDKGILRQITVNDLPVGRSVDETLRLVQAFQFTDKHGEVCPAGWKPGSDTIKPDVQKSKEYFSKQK
Briefly: ELISA on recombinant human Prdx1. (In general: ELISA stands for enzyme-linked immunosorbent assay.)

B1: 抗Prdx1蛋白的单克隆中和抗体 (mouse monoclonal anti-human Prdx1 neutralizing antibody, Example 4) (antibody, V domains shown)
VH: QVQLQQSGPELMKPGASVKISCKATGYTFSNSWIEWVKQRPGHGLEWIGEILPGSGDTDYNEKFKGKATITADTSSNTAYMQLSSLTSEDSAVYYCASPYGDYFFANWGLGTLVTVSA
VL: DIVITQDELSNPVTSGESVSISCRSSKSLLYKDGKTYLNWFLQRPGQSPQLLIYLMSTRAAGVSDRFSGSGSGTDFTLEISRVKAEDVGVYYCQQLVEYPYTFGGGTKLEIK
notes: Mouse (BALB/c) hybridoma IgG purified from ascites on protein G; also called Prdx1单克隆抗体; Prdx1单克隆中和抗体
Take B1: the binding result in assay [1] and in assay [2] was “binds” each time.
